IC50 data for three molecules are collected here from US20050169917A1.

This test has as its target Orphanin FQ receptor, normal (NT), expressed in Cos-7 cells (UniProt P35370). Nature of the test: inhibition of [125I] Y14-OFQ17 binding, Cos-7 cells transfected with OFQR.
As usually defined, the IC50 is the concentration that gives 50% inhibition. Lower therefore signals inhibition by little substance. On to FGGFTGARKSA [OFQ11], for which the IC50 was determined as 5000 nM.

Turning to FGGFTGAKKSARKLANQ [synthetic OFQ17 with R8K], the IC50 came to 0.1 nM.

Regarding FGGFTGARKSARCLANQ [synthetic OFQ17 with K13C], the IC50 stood at 0.1 nM.
